Measured values from patent publication US20110039770A1, “INHIBITORS OF PROTEIN KINASE C ISOFORMS AND USES THEREOF” (PHARMAGAP INC., priority 2005, published 2011).
Where a SMILES comes first, the peptide text is derived from it. [ ]: non-standard residue; d: D form.

Assays:
PKC-α = PKC-α (Homo sapiens, UniProt P17252); assay: Competitive binding assay using cell extracts (Western blot); set-up: endogenous PKC-α in (A) untreated human neuroblastoma (IMR-32) cells; endogenous in cells; host or cells: IMR-32 human neuroblastoma cells; key: —: no detectable affinity; Low to very low affinity at 10X or 20X or both PRE concentrations in at least one cell line in the cell extract assay; Low affinity in purified isoform assay.; Moderate affinity at 10X or 20X or both PRE concentrations in at least one cell line in the cell extract assay.; High affinity at 10X or 20X or both PRE concentrations in at least one cell line in the cell extract assay; High affinity in purified isoform assay; conditions: Cell extract; PRE 10X or 20X antibody concentration
PKC-δ = PKC-δ (Homo sapiens, UniProt Q05655); assay: as above; set-up: cytoplasmic extracts from different cell lines expressing appropriate PKC isoforms; endogenous in cells; host or cells: H661, MDAMB231, LS180, T24; key: —: no detectable affinity; Low to very low affinity at 10X or 20X or both PRE concentrations in at least one cell line in the cell extract assay; Low affinity in purified isoform assay.; Moderate affinity at 10X or 20X or both PRE concentrations in at least one cell line in the cell extract assay.; High affinity at 10X or 20X or both PRE concentrations in at least one cell line in the cell extract assay; High affinity in purified isoform assay; conditions: Cell extract; PRE 10X or 20X antibody concentration
Description: Binding efficiency and specificity of the peptides PRE 2, 3, 4, 5, 6, 7, 8, 9, 10, 11, 12 and 13 (see Table 4) was also tested using cytoplasmic extracts from different cell lines expressing appropriate PKC isoforms as described for Example 1. Briefly, the protein cytoplasmic extracts were separated by electrophoresis and transferred onto nitrocellulose membranes by standard Western blotting procedures. The bands on the Western blots were detected with matching primary antibodies and alkaline phosphatase conjugated secondary antibody. The bands were then scanned and the relative density measurements obtained.
This procedure to assess the binding characteristics of the PREs is based on competition binding of the PRE with the primary anti-isoform PKC specific antibodies. The lower the measured band density, the greater the binding of the PRE to the PKC isoform. The PREs were added at 10 and 20 times (10×, 20×) the primary antibody concentration, according to classical competition between antigenic peptide and primary antibody. The following cell lines (obtained from the ATCC) were used: H661—NCI human lung carcinoma NSCLC; MDAMB231—human highly invasive breast cancer cell line from pleural effusion; LS180—human colon adenocarcinoma; LnCAP—human prostate adenocarcinoma; CCD16Lu—human lung fibroblasts; Du145—human prostate carcinoma brain metastasis, and T24—human bladder carcinoma.
In these cases, the 20× band density figures relative to control and 10× values were reliable.

Sequence of PKC-δ (Q05655 whole entry, canonical isoform): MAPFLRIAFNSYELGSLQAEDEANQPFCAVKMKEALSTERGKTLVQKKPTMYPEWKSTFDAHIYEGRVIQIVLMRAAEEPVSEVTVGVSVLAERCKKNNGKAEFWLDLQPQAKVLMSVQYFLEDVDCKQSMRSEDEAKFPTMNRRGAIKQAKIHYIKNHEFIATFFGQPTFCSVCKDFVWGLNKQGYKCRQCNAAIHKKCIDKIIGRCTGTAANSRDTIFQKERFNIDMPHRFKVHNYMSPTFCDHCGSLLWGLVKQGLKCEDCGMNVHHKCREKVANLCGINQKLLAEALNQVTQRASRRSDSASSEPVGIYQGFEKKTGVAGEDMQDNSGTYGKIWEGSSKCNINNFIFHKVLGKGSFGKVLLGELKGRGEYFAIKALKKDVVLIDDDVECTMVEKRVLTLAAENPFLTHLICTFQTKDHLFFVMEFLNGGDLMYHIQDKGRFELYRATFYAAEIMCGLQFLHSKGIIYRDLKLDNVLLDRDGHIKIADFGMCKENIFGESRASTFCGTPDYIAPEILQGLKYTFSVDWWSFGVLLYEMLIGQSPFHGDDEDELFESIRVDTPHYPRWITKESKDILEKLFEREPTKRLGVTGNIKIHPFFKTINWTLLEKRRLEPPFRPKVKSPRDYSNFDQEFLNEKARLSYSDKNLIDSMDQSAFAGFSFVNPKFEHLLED

Row | Molecule | Affinity for PKC isoform α (PKC-α) | Affinity for PKC isoform δ (PKC-δ)
1 | CC[C@H](C)[C@H](NC(=O)[C@H](CO)NC(=O)[C@@H](NC(=O)CNC(=O)[C@@H](NC(=O)[C@H](CC(C)C)NC(=O)[C@H](CC(N)=O)NC(=O)[C@H](CCC(N)=O)NC(=O)[C@H](C)NC(=O)[C@H](CC(=O)O)NC(=O)CNC(=O)CNC(=O)[C@H](CCCCN)NC(=O)[C@@H](NC(=O)[C@H](CCC(=O)O)NC(=O)[C@H](CCC(N)=O)NC(=O)[C@@H](NC(=O)CNC(=O)[C@H](CCCCN)NC(=O)[C@H](C)NC(C)=O)[C@@H](C)CC)C(C)C)[C@@H](C)CC)[C@@H](C)CC)C(N)=O [PRE 3] (Ac-AKGIQEVKGGDAQNLIGISI-NH2) | H | H
2 | CC[C@H](C)[C@H](NC(=O)[C@H](CO)NC(=O)[C@@H](NC(=O)CNC(=O)[C@@H](NC(=O)[C@H](CC(C)C)NC(=O)[C@H](CC(N)=O)NC(=O)[C@H](CCC(N)=O)NC(=O)[C@H](C)NC(=O)[C@H](CC(=O)O)NC(=O)[C@H](CCCCN)NC(C)=O)[C@@H](C)CC)[C@@H](C)CC)C(N)=O [PRE 4, Ac-KDAQNLIGISI-NH2] (Ac-KDAQNLIGISI-NH2) | H | —
3 | CC[C@H](C)[C@H](NC(=O)[C@H](CO)NC(=O)[C@@H](NC(=O)CNC(=O)[C@@H](NC(=O)[C@H](CC(C)C)NC(=O)[C@H](CC(N)=O)NC(=O)[C@H](CCC(N)=O)NC(=O)[C@H](C)NC(=O)[C@H](CC(=O)O)NC(=O)[C@H](CCCCN)NC(=O)CNC(=O)CNC(=O)[C@H](CCCCN)NC(=O)[C@@H](NC(=O)[C@H](CCC(=O)O)NC(=O)[C@H](CCC(N)=O)NC(=O)[C@@H](NC(=O)CNC(=O)[C@H](CCCCN)NC(=O)[C@H](C)NC(C)=O)[C@@H](C)CC)C(C)C)[C@@H](C)CC)[C@@H](C)CC)C(N)=O [PRE 5] (Ac-AKGIQEVKGGKDAQNLIGISI-NH2) | M | —
4 | Ac-ISIGILNQADK-NH2 [PRE 10] | H/L | H
5 | Ac-ISIGILQNADK-NH2 (not fully specified; printed as Ac-ISIGILQNADK-NH2) [PRE 7] | L | L
6 | Ac-KDANQLIGISI-NH2 [PRE 6] | H/L | M/H
7 | Ac-KDAQNLI-NH2 [PRE 12] | — | —
8 | Ac-RDAQNLI-NH2 [PRE 13] | M/H | —
9 | Ac-RDAQNLIGISI-NH2 [PRE 11] | H/L | —
10 | Ac-isigilqnadk-NH2 (Ac-[dI][dS][dI]G[dI][dL][dQ][dN][dA][dD][dK]-NH2; SMILES CC[C@@H](C)[C@@H](NC(C)=O)C(=O)N[C@H](CO)C(=O)N[C@@H](C(=O)NCC(=O)N[C@@H](C(=O)N[C@H](CC(C)C)C(=O)N[C@H](CCC(N)=O)C(=O)N[C@H](CC(N)=O)C(=O)N[C@H](C)C(=O)N[C@H](CC(=O)O)C(=O)N[C@H](CCCCN)C(N)=O)[C@H](C)CC)[C@H](C)CC) [PRE 9] | M/L | H
11 | ILEDKGGDAQNLIGISI [PRE 8] | M/L | L
12 | RRKKGGKDFVVKR [PRE 1] | H | —
